From patent US20230220589A1 come the findings set out here.

The target in test [1] is M90-modified A NTAA target peptide. Briefly: affinity comparison between P1 residues (method not specified; BLI / encoding assay).
Test [2] addresses M48-modified L NTAA target peptides (M48-L-P2-peptide). Briefly: Gini coefficient of P2 tolerance from multiplex encoding heatmap.
Test [3] shares this target. The experiment in a line: Gini coefficient of P1 selectivity from multiplex encoding heatmap.
The target of test [4] is M2014-modified Y NTAA target peptides (M2014-Y-P2-peptide). Briefly: Gini coefficient of P2 tolerance from multiplex encoding heatmap.
Test [5] has the same target. Briefly: Gini coefficient of P1 selectivity from multiplex encoding heatmap.
The target in test [6] is M44-modified Y NTAA target peptides (M44-Y-P2-peptide). The experiment in a line: Gini coefficient of P2 tolerance from multiplex encoding heatmap.
Test [7] has the same target. The experiment in a line: Gini coefficient of P1 selectivity from multiplex encoding heatmap.
Test [8] has as its target M90-modified L NTAA target peptide. The experiment in a line: affinity comparison between P1 residues (method not specified; BLI / encoding assay).
Test [9] deals with M12-modified L NTAA target peptides (M12-L-P2-peptide). Briefly: multiplex encoding assay on 288 immobilized peptides (FIG. 10); holds for at least 11 P2 residues.
For test [10], the target named is M90-modified F NTAA target peptide. The experiment in a line: affinity comparison between P1 residues (method not specified; BLI / encoding assay).
Test [11] concerns the target M12-modified F NTAA target peptides (M12-F-P2-peptide). The experiment in a line: multiplex encoding assay on 288 immobilized peptides (FIG. 9); holds for at least 14 P2 residues.

B1: SEQ ID NO 54 (designed binder, not shown: small tags and cut ends; large carriers)
chain: QIPLCANLVPVPITNATLDRITGKWFVIASATRNEEYNKSVQRQQGTVFYYTPNKTEDTIFVRRYQTRQNQCFYNSSYLNVQRENGTVSFYEGGRELVFHLLFLRDTKTLMWGLYLDDEKNWGLEFFADKPETTKEQLGEFYEALDCLRIPRSDVMYTDWKKDKCEPLEKQHEKERKQEEGES
Consider B1, for which, in test [1], the fold affinity over an otherwise identical peptide with a different P1 is more than 2 fold.

B2: SEQ ID NO 27 (designed binder, not shown: small tags and cut ends; large carriers)
chain: QVSVQPNFQQDKFLGRWFIAGQASNSSWQREKCAALSRAKVVVAPATDGGLNLTMTLLRKNQCETRTTLLQPAGSLGSYSYRSPHLGSTVSWSVVETDYDQYALMYVQGSKGPGEDQRFAILWSRTQTPRAELKEKFTAFSKAQGFTEDTIVFLPQTDKCMTEQ
In turn, B2 registered a P2 score in test [2] of 0.312. For the same molecule, the P1 score in [3] was determined as 0.0571.

B3: SEQ ID NO 48 (designed binder, not shown: small tags and cut ends; large carriers)
chain: QDSTQNLIPAPSLLTVPLQPDFRSDQFRGRWYVVGLAGNAVQKKTEGSFTMLSLIYELQENNSYNVTAIFVRDQDQGCRYVIDTLVPSSRAGQFTPGSMGRFPQVQSYNVQVATTDYNQFAMVFVRVTSENKQYFEITLLGRTKELSPELKERFTRFAKSLGLKDDNIIFSVPTDQCIDNSAWSHPQFEK
Take B3: in test [4], the P2 score came to 0.255. This molecule had a P1 score in test [5] of 0.238.

B4: SEQ ID NO 45 (designed binder, not shown: small tags and cut ends; large carriers)
chain: TVPDRSEIAGKWYVVALASNTEFLLREKDSLKSAMARISFLGEDELKVSYARPLPNGCLKLEATMKKTSDDGEVYLSRSAKLKVEVLDTDYKSYAVIYATPVKDGRTRHYMALYSRSPEVSPAATAIFRKLAGERNYTDEMVAMLPRQEECTVDEV
For B4, the P2 score in [6] amounted to 0.426. For the same molecule, in [7], the P1 score was found to be 0.301.

B5: SEQ ID NO 53 (designed binder, not shown: small tags and cut ends; large carriers)
chain: QIPLCANLVPVPITNATLDRITGKWFLIASASRNEEYNKSVQGSQNTAFYFTPNKTEDTIFLRRYQTRQNQCFYNSSYLNVQRENGTVSSYFGGRENVIHLLFLRDTKTLMLGRYLDDEKNWGLEFYADKPETTKEQLGEFYEALDCLRIPRSDVMYTDWKKDKCEPLEKQHEKERKQEEGES
Consider B5, for which the fold affinity over an otherwise identical peptide with a different P1 in [8] was more than 2 fold.

B6: engineered M12-L binder (SEQ ID NO: 49) (designed binder, not shown: small tags and cut ends; large carriers)
chain: QVSVQPNFQQDKFLGRWFVAGIASNSSWSREKIAALSFAKGVVAPATDGGLNYTETVLRKNQCETQTVLLQPAGSLGSYSARSPHQGSTRSFSVVETDYDQYALLYAQGSKGPGEDDRVAGLWSRTQTPRAELKEKFTAFSKAQGFTEDTIVFLPQTDKCMTEQ
For the molecule B6, the encoding efficiency (fraction of recording tags encoded) in test [9] is more than 0.15.

B7: SEQ ID NO 51 (designed binder, not shown: small tags and cut ends; large carriers)
chain: QIPLCANLVPVPITNATLDRITGKWFHIASAIRNEEYNKSVQRQQSTHFYITPNKTEDTIFTRVYQTRQNQCFYNSSYLNVQRENGTVSLYSGGREVVGHLLFLRDTKTLMWGTYLDDEKNWGLEFWADKPETTKEQLGEFYEALDCLRIPRSDVMYTDWKKDKCEPLEKQHEKERKQEEGES
In [10], B7 had a fold affinity over an otherwise identical peptide with a different P1 of more than 2 fold.

B8: engineered M12-F binder (SEQ ID NO: 50) (designed binder, not shown: small tags and cut ends; large carriers)
chain: GPVPTPPDNIQVQENFNISRIYGKWYPLAMGSTSPYLKKSMDIMTPSYLVLGEGATEAEISWTETFWRKGVCEEGSGALEKTDTDGKFLYHKSKWNITEERYVVHTNYDEYAIVLVKKFSRHHGPTIEAVLMGRAPQLRETLLQDFRVVAQGVGIPEDSIFTMADRGECVPGEQ
Consider B8, for which the encoding efficiency (fraction of recording tags encoded) in [11] was more than 0.15.
